# Assay results as given in article PMC5734868 (ACS infectious diseases, 2017).
# Target: the molecule itself
# Test: SDS-PAGE of semi-denatured protein
protein,measurement,value
"M. tuberculosis aspartate decarboxylase PanD, wild type (enzyme) MLRTMLKSKIHRATVTCADLHYVGSVTIDADLMDAADLLEGEQVTIVDIDNGARLVTYAITGERGSGVIGINGAAAHLVHPGDLVILIAYATMDDARARTYQPRIVFVDAYNKPIDMGHDPAFVPENAGELLDPRLGVG",binding result,binds
